Test results: patent publication US20240132621A1

Target: chitinase-3-like protein-1 (YKL-40) on human ovarian cancer cell CA5171 (human) (UniProt P36222)
Experiment: flow cytometry on human ovarian cancer cell CA5171

Chain of UniProt P36222 (P36222 22-383): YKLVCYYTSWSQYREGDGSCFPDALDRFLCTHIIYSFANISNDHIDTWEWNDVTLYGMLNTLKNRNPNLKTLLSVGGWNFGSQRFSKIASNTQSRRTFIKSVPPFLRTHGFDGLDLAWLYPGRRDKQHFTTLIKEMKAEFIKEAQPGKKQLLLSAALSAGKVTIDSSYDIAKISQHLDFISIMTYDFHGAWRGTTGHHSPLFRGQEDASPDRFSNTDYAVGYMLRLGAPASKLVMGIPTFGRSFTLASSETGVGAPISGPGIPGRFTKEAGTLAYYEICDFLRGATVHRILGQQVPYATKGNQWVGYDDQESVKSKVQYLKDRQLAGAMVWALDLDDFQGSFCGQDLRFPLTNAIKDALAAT

Substance: control group antibody (IgG)
- binding ability (percent, flow cytometry): 28.7%
